Results published in US20250043302A1, “MUTATED HYDROXYPHENYLPYRUVATE DIOXYGENASE POLYPEPTIDE, AND CODING GENE AND USE THEREOF” (BEIJING DABEINONG BIOTECHNOLOGY CO., LTD., priority 2021, published 2025).
Where a chain is given by its changes, count along the chain named. Names and notes keep the numbering of the source.

B1: GmHPPDm-F372A-02: nucleotide sequence encoding Glycine max HPPD with F372A; vector DBN11747 (nucleic acid)
DNA: ATGCCAATGTACACACCATCGCTCTCCGCCCCTTCTTCCAACCATATTCAGCCATCCGTGACTCTGCCTCTCTACATCACAACCACCAAGTTGAACCTGAAGCAGCAGCACCATACGACTCCTATGCCTATACCCATGTGCAATGAGATCCAAGCACAGGCTCAGGCACAAGCTCAACCCGGATTCAAACTCGTGGGATTCAAGAACTTCGTCCGTACCAATCCAAAATCTGACCGCTTCCAGGTGAACAGATTCCACCACATAGAGTTTTGGTGTACTGATGCAACGAATGCTTCGAGGAGGTTTTCATGGGGCTTAGGCATGCCGATTGTAGCAAAGTCAGACCTTTCTACAGGGAACCAAATTCATGCAAGCTATCTGCTCCGCTCAGGTGATTTGTCTTTCTTGTTCTCAGCTCCATATTCTCCATCATTATCTGCTGGGTCATCAGCAGCATCTAGTGCGTCGATCCCTAGCTTTGATGCCGCCACCTGCCTCGCCTTCGCCGCCAAACATGGATTTGGTGTTCGCGCCATTGCTCTTGAGGTTGCCGATGCCGAGGCTGCTTTTAGCGCCTCCGTCGCCAAGGGAGCTGAGCCTGCGTCACCTCCTGTTCTTGTTGATGATCGAACTGGTTTTGCTGAAGTGCGTCTTTACGGCGACGTGGTGCTCAGATATGTTAGTTACAAGGATGCTGCTCCTCAAGCGCCGCACGCTGATCCTTCAAGATGGTTTCTTCCGGGGTTTGAGGCCGCTGCTAGTTCATCTTCCTTCCCGGAGTTGGATTACGGCATACGGCGGCTTGACCATGCTGTCGGCAATGTTCCTGAGCTTGCTCCGGCGGTACGGTACTTGAAAGGTTTCTCCGGGTTCCATGAATTTGCAGAGTTCACGGCGGAAGATGTTGGAACAAGTGAAAGCGGATTGAATTCTGTTGTTTTGGCCAACAACAGTGAAACTGTTCTGCTCCCCCTCAATGAACCAGTTTATGGCACAAAGCGCAAGAGCCAGATTGAAACATATCTCGAGCACAATGAAGGCGCCGGCGTCCAGCATCTTGCTTTGGTGACTCATGATATCTTCACAACACTTAGGGAGATGAGGAAGAGGAGTTTCCTCGGCGGGTTTGAATTCATGCCCAGTCCCCCGCCGACCTACTATGCAAATCTGCACAACAGGGCTGCAGATGTGCTGACTGTAGACCAGATCAAGCAATGTGAAGAACTTGGAATTTTAGTGGATAGAGACGACCAAGGTACACTACTTCAAATAGCCACCAAACCAGTCGGTGACAGACCAACAATTTTCATCGAGATTATACAAAGAATTGGATGCATGGTCGAGGATGAAGAAGGGAAGGTGTACCAGAAGGGAGCATGTGGTGGTTTTGGGAAAGGAAATTTTTCTGAGCTGTTTAAATCCATCGAGGAATATGAGAAAACCTTAGAAGCTAAAAGAACTGCATGA
modifications: GmHPPDm-F372A-02 Nucleotide Sequence
notes: vector DBN11747
B2: GmHPPDm-F383W-02: nucleotide sequence encoding Glycine max HPPD with F383W; vector DBN11748 (nucleic acid)
DNA: B1 DNA with G1273T, C1274T, T1307G, C1308G
modifications: GmHPPDm-F383W-02 Nucleotide Sequence
notes: vector DBN11748

Experiments:
Format in all cases: in vivo
[1] = test system: Arabidopsis thaliana T1 plants; experiment: Topramezone tolerance of transgenic Arabidopsis thaliana T1 plants (spray, bleached leaf area grade, damage score); details: 7 DAT, Table 4; for Classification and statistics of the grade of pesticide damage: Grade 0 / Classification and statistics of the grade of pesticide damage: Grade 1 / Classification and statistics of the grade of pesticide damage: Grade 2 / Classification and statistics of the grade of pesticide damage: Grade 3: number of plants; for Scores: pesticide damage score 0-100
How it was run: (§1)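 Damage was assessed by bleaching grade (0 none; 1 <50%; 2 >50%; 3 100% of leaf area) one week after spraying. Sprays on 18-day-old T1 and wild-type plants used field-rate multiples: topramezone 25–200, isoxaflutole 35–280, mesotrione 52.5–420 g ai/ha.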

[2] = test system: Arabidopsis thaliana T1 plants; experiment: Isoxaflutole tolerance of transgenic Arabidopsis thaliana T1 plants (spray, bleached leaf area grade, damage score); design: Scores (pesticide damage): scale not given here; details: spray, Arabidopsis thaliana T1 plants; for Classification and statistics of the grade of pesticide damage: Grade 0 (number of plants) / Classification and statistics of the grade of pesticide damage: Grade 1 (number of plants) / Classification and statistics of the grade of pesticide damage: Grade 2 (number of plants) / Classification and statistics of the grade of pesticide damage: Grade 3 (number of plants): 16 plants
How it was run: as §1

[3] = test system: Arabidopsis thaliana T1 plants; experiment: Mesotrione tolerance of transgenic Arabidopsis thaliana T1 plants (spray, bleached leaf area grade, damage score); design: Scores: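 damage score 0-100 computed as Σ(N×S)/(T×M)×100 over grades 0-3 with higher meaning more damage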; details: Arabidopsis thaliana T1 plants; for Grade 0 (classification and statistics of the grade of pesticide damage; number of plants) / Grade 1 (classification and statistics of the grade of pesticide damage; number of plants) / Grade 2 (classification and statistics of the grade of pesticide damage; number of plants) / Grade 3 (classification and statistics of the grade of pesticide damage; number of plants): 16 plants
How it was run: as §1

[4] = isoxaflutole 35 g ai/ha (0.5x field concentration)
[5] = isoxaflutole 70 g ai/ha (1x field concentration)

Molecule | Classification and statistics of the grade of pesticide damage: Grade 0 ([1]; topramezone 25 g ai/ha (1×)) | Classification and statistics of the grade of pesticide damage: Grade 1 ([1]; topramezone 25 g ai/ha (1×)) | Classification and statistics of the grade of pesticide damage: Grade 2 ([1]; topramezone 25 g ai/ha (1×)) | Classification and statistics of the grade of pesticide damage: Grade 3 ([1]; topramezone 25 g ai/ha (1×)) | Classification and statistics of the grade of pesticide damage: Grade 0 ([1]; topramezone 100 g ai/ha (4×)) | Classification and statistics of the grade of pesticide damage: Grade 1 ([1]; topramezone 100 g ai/ha (4×)) | Classification and statistics of the grade of pesticide damage: Grade 2 ([1]; topramezone 100 g ai/ha (4×)) | Classification and statistics of the grade of pesticide damage: Grade 3 ([1]; topramezone 100 g ai/ha (4×)) | Scores ([1]; topramezone 25 g ai/ha (1×)) | Scores ([1]; topramezone 100 g ai/ha (4×)) | Resistance evaluation ([1]; topramezone 25 g ai/ha (1×)) | Resistance evaluation ([1]; topramezone 100 g ai/ha (4×)) | Resistance evaluation [2, 4] | Scores (pesticide damage) [2, 4] | Classification and statistics of the grade of pesticide damage: Grade 0 (number of plants) [2, 4] | Classification and statistics of the grade of pesticide damage: Grade 1 (number of plants) [2, 4] | Classification and statistics of the grade of pesticide damage: Grade 2 (number of plants) [2, 4] | Classification and statistics of the grade of pesticide damage: Grade 3 (number of plants) [2, 4] | Resistance evaluation [2, 5] | Scores (pesticide damage) [2, 5] | also measured
B1 | 0 | 12 | 4 | 0 | 0 | 0 | 0 | 16 | 42 | 100 | poorly | non-resistant (non-resistant plants (scores 68-100)) | Poorly | 65 | 0 | 3 | 11 | 2 | Non-resistant | 100 | Classification and statistics of the grade of pesticide damage: Grade 0 (number of plants) [2, 5]: 0; Classification and statistics of the grade of pesticide damage: Grade 1 (number of plants) [2, 5]: 0; Classification and statistics of the grade of pesticide damage: Grade 2 (number of plants) [2, 5]: 0; Classification and statistics of the grade of pesticide damage: Grade 3 (number of plants) [2, 5]: 16; Resistance evaluation ([3]; mesotrione 52.5 g ai/ha): Poorly resistant; Scores ([3]; mesotrione 52.5 g ai/ha): 67; Grade 0 (classification and statistics of the grade of pesticide damage; number of plants) ([3]; mesotrione 52.5 g ai/ha): 0; Grade 1 (classification and statistics of the grade of pesticide damage; number of plants) ([3]; mesotrione 52.5 g ai/ha): 2; Grade 2 (classification and statistics of the grade of pesticide damage; number of plants) ([3]; mesotrione 52.5 g ai/ha): 12; Grade 3 (classification and statistics of the grade of pesticide damage; number of plants) ([3]; mesotrione 52.5 g ai/ha): 2; Resistance evaluation ([3]; mesotrione 105 g ai/ha): Non-resistant; Scores ([3]; mesotrione 105 g ai/ha): 100; Grade 0 (classification and statistics of the grade of pesticide damage; number of plants) ([3]; mesotrione 105 g ai/ha): 0; Grade 1 (classification and statistics of the grade of pesticide damage; number of plants) ([3]; mesotrione 105 g ai/ha): 0; Grade 2 (classification and statistics of the grade of pesticide damage; number of plants) ([3]; mesotrione 105 g ai/ha): 0; Grade 3 (classification and statistics of the grade of pesticide damage; number of plants) ([3]; mesotrione 105 g ai/ha): 16
B2 | 0 | 3 | 9 | 4 | 0 | 0 | 0 | 16 | 69 | 100 | non-resistant (non-resistant plants (scores 68-100)) | non-resistant (non-resistant plants (scores 68-100)) | Non-resistant | 81 | 0 | 0 | 9 | 7 | Non-resistant | 100 | Classification and statistics of the grade of pesticide damage: Grade 0 (number of plants) [2, 5]: 0; Classification and statistics of the grade of pesticide damage: Grade 1 (number of plants) [2, 5]: 0; Classification and statistics of the grade of pesticide damage: Grade 2 (number of plants) [2, 5]: 0; Classification and statistics of the grade of pesticide damage: Grade 3 (number of plants) [2, 5]: 16; Resistance evaluation ([3]; mesotrione 52.5 g ai/ha): Non-resistant; Scores ([3]; mesotrione 52.5 g ai/ha): 100; Grade 0 (classification and statistics of the grade of pesticide damage; number of plants) ([3]; mesotrione 52.5 g ai/ha): 0; Grade 1 (classification and statistics of the grade of pesticide damage; number of plants) ([3]; mesotrione 52.5 g ai/ha): 0; Grade 2 (classification and statistics of the grade of pesticide damage; number of plants) ([3]; mesotrione 52.5 g ai/ha): 0; Grade 3 (classification and statistics of the grade of pesticide damage; number of plants) ([3]; mesotrione 52.5 g ai/ha): 16; Resistance evaluation ([3]; mesotrione 105 g ai/ha): Non-resistant; Scores ([3]; mesotrione 105 g ai/ha): 100; Grade 0 (classification and statistics of the grade of pesticide damage; number of plants) ([3]; mesotrione 105 g ai/ha): 0; Grade 1 (classification and statistics of the grade of pesticide damage; number of plants) ([3]; mesotrione 105 g ai/ha): 0; Grade 2 (classification and statistics of the grade of pesticide damage; number of plants) ([3]; mesotrione 105 g ai/ha): 0; Grade 3 (classification and statistics of the grade of pesticide damage; number of plants) ([3]; mesotrione 105 g ai/ha): 16
